Test results as given in paper PMC5899673.

B1: SPIN (Staphylococcal Peroxidase INhibitor) from S. aureus strain Newman (natural protein)
chain: KVYSQNGLVLHDDANFLEHELSYIDVLLDKNADQATKDNLRSYFADKGLHSIKDIINKAKQDGFDVSKYEHVK

Molecular target: Native human myeloperoxidase (MPO) isolated from purulent sputum (human) (UniProt P05164)
Experiment: SPR

Sequence of UniProt P05164 (P05164 165-745): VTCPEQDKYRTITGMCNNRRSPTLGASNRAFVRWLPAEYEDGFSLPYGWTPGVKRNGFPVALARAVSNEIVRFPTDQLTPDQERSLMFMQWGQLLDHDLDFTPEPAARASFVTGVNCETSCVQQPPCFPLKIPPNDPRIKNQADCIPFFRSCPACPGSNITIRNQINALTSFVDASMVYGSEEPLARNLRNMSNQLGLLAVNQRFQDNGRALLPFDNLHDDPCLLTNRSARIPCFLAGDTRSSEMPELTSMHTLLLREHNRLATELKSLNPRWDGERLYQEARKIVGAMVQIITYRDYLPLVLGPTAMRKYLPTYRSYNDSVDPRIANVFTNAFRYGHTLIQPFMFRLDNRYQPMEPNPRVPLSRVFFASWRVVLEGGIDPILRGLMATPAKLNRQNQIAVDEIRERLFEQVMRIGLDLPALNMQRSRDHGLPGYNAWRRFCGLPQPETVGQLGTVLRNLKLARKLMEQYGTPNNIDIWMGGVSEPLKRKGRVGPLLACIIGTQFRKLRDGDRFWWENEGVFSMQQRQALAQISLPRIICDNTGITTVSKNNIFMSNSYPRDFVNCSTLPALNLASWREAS

Molecule	Kd	koff	kon
SPIN-intermedius (SPIN homolog from S. intermedius) (natural protein)	984 nM	0.00334 s⁻¹	3500 M⁻¹ s⁻¹
SPIN-schleiferi (SPIN homolog from S. schleiferi) (natural protein)	230 nM	0.00252 s⁻¹	11200 M⁻¹ s⁻¹
SPIN-agnetis (SPIN homolog from S. agnetis) (natural protein)	41.8 nM	0.00236 s⁻¹	56400 M⁻¹ s⁻¹
SPIN-delphini (SPIN from Staphylococcus delphini) (natural protein)	310 nM	0.00334 s⁻¹	10800 M⁻¹ s⁻¹
B1	15.9 nM	0.00316 s⁻¹	201000 M⁻¹ s⁻¹
